System: Hirudin (Calbiochem 377853)

thrombin activated from 10% human plasma on HUVEC monolayers
cleavage of the chromogenic thrombin substrate (absorbance at 405 nm): completely blocked the cleavage of the chromogenic thrombin substrate

From patent US20080199426
